As usually defined, the EC50 is the concentration at which the effect is half-maximal. Read a low EC50 as an effect from little substance.

Experimental findings from US20230250176A1 (DRAGONFLY THERAPEUTICS, published 2023) are described below.

For experiment [1], the target named is T1, mouse Tyrp1 on B16F10 and CT26-Tyrp1 cells (mouse, UniProt P07147 25-537).
T1 construct: whole, on cells
Put plainly: flow cytometry on B16F10 cells, anti-mouse IgG-Fc secondary, MFI minus background, 4-parameter fit. For orientation: A flow cytometer gives signals particle by particle.

In experiment [2] the target is T1, mouse Tyrp1 on B16F10 and CT26-Tyrp1 …. Put plainly: flow cytometry on CT26-Tyrp1 cells, anti-mouse IgG-Fc secondary, MFI minus background, 4-parameter fit.
The target in the next experiment is T2, human NKG2D on cells (human, UniProt P26718 1-216).
T2 construct: whole, on cells; also called NKG2D on KHYG-1 parental cells; NKG2D on CD8+ T cells and NK cells
T2 sequence (looked up): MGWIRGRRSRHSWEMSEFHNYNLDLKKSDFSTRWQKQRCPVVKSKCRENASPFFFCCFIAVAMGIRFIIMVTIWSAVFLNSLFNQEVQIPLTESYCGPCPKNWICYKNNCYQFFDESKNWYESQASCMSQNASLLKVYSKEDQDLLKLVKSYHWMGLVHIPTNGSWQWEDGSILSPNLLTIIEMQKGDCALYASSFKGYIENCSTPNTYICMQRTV
Put plainly: flow cytometry, AF647-conjugated test article on KHYG-1 parental cells (NKG2D+, CD16a-).

For experiment [3], the target named is purified recombinant mouse EGFR (mouse, UniProt Q01279 25-647, limits assumed). The experiment is described as follows: SPR (Biacore 8K), 37 C. On the technique in general: SPR reads the build-up and loss of mass on a sensor chip optically.
Method: (§1) Measurements were performed at physiological temperature of 37° C. using a Biacore8K SPR system.
For experiment [4], the target named is purified recombinant rat EGFR (rat, UniProt A0ABK0LZB0 35-651). The experiment is described as follows: SPR (Biacore 8K), 37 C.
Method: as §1

B1: TA99 (antibody, V domains shown)
VH: EVQLQQSGAELVRPGALVKLSCKTSGFNIKDYFLHWVRQRPDQGLEWIGWINPDNGNTVYDPKFQGTASLTADTSSNTVYLQLSGLTSEDTAVYFCTRRDYTYEKAALDYWGQGASVIVSS
VL: DIQMSQSPASLSASVGETVTITCRASGNIYNYLAWYQQKQGKSPHLLVYDAKTLADGVPSRFSGSGSGTQYSLKISSLQTEDSGNYYCQHFWSLPFTFGSGTKLEIK
Regarding B1, the EC50 in experiment [1] was 11 nM; in experiment [2], 14.6 nM.

B2: panitumumab (antibody, IgG2, V domains shown)
VH: QVQLQESGPGLVKPSETLSLTCTVSGGSVSSGDYYWTWIRQSPGKGLEWIGHIYYSGNTNYNPSLKSRLTISIDTSKTQFSLKLSSVTAADTAIYYCVRDRVTGAFDIWGQGTMVTVSS
VL: DIQMTQSPSSLSASVGDRVTITCQASQDISNYLNWYQQKPGKAPKLLIYDASNLETGVPSRFSGSGSGTDFTFTISSLQPEDIATYFCQHFDHLPLAFGGGTKVEIK
As to B2, the binding result is “no binding (tested: 800 nM)” with human NKG2D on cells, “no binding” in experiment [3] and “no binding” in experiment [4].
